How the values were obtained:
Test in all cases: cell_activity
[1] = test system: TALETRE#4-KRAB (synthetic (Xanthomonas TALE)); conditions: 50 ng, against TALETRE#4-VP16-induced AmCyan
[2] = test system: TALETRE#3-KRAB (synthetic (Xanthomonas TALE)); conditions: 50 ng, against TALETRE#4-VP16-induced AmCyan
[3] = test system: TALECMV-KRAB (synthetic (Xanthomonas TALE)); conditions: 100 ng, CMV-mKate-PEST in HEK293; only 19% on TRE/CMVmin AmCyan at 50 ng

**Q.** Which activity [1] does the source give for “ATCAGTGATAGAGAAC (double strand) [TRE target of TALETRE#4]” here?
**A.** 80 % repression

**Q.** For “CCCTATCAGTGAT (double strand) [TRE target of TALETRE#3]”, which activity [2] is on record?
**A.** 84 % repression

**Q.** With “CTATATAAGCAGAGCT (double strand) [CMV TATA box region target]” as the sequence, how does the activity [3] read?
**A.** 93 % repression

Source: US20160369268
